Assay results reported in paper PMC5751952.

Molecular target: wild-type ElDyP lacking the His6 tag (subtilisin A-treated, for crystallization) (Enterobacter lignolyticus)
Assay: crystal structure

- stoichiometry N: 2
Substance: wild-type ElDyP lacking the His6 tag (subtilisin A-treated, for crystallization) (enzyme)
